B1: Phosphatidylinositol 4,5-bisphosphate 3-kinase catalytic subunit delta isoform (Homo sapiens), O00329 (parent)
chain: MPPGVDCPMEFWTKEENQSVVVDFLLPTGVYLNFPVSRNANLSTIKQLLWHRAQYEPLFHMLSGPEAYVFTCINQTAEQQELEDEQRRLCDVQPFLPVLRLVAREGDRVKKLINSQISLLIGKGLHEFDSLCDPEVNDFRAKMCQFCEEAAARRQQLGWEAWLQYSFPLQLEPSAQTWGPGTLRLPNRALLVNVKFEGSEESFTFQVSTKDVPLALMACALRKKATVFRQPLVEQPEDYTLQVNGRHEYLYGSYPLCQFQYICSCLHSGLTPHLTMVHSSSILAMRDEQSNPAPQVQKPRAKPPPIPAKKPSSVSLWSLEQPFRIELIQGSKVNADERMKLVVQAGLFHGNEMLCKTVSSSEVSVCSEPVWKQRLEFDINICDLPRMARLCFALYAVIEKAKKARSTKKKSKKADCPIAWANLMLFDYKDQLKTGERCLYMWPSVPDEKGELLNPTGTVRSNPNTDSAAALLICLPEVAPHPVYYPALEKILELGRHSECVHVTEEEQLQLREILERRGSGELYEHEKDLVWKLRHEVQEHFPEALARLLLVTKWNKHEDVAQMLYLLCSWPELPVLSALELLDFSFPDCHVGSFAIKSLRKLTDDELFQYLLQLVQVLKYESYLDCELTKFLLDRALANRKIGHFLFWHLRSEMHVPSVALRFGLILEAYCRGSTHHMKVLMKQGEALSKLKALNDFVKLSSQKTPKPQTKELMHLCMRQEAYLEALSHLQSPLDPSTLLAEVCVEQCTFMDSKMKPLWIMYSNEEAGSGGSVGIIFKNGDDLRQDMLTLQMIQLMDVLWKQEGLDLRMTPYGCLPTGDRTGLIEVVLRSDTIANIQLNKSNMAATAAFNKDALLNWLKSKNPGEALDRAIEEFTLSCAGYCVATYVLGIGDRHSDNIMIRESGQLFHIDFGHFLGNFKTKFGINRERVPFILTYDFVHVIQQGKTNNSEKFERFRGYCERAYTILRRHGLLFLHLFALMRAAGLPELSCSKDIQYLKDSLALGKTEEEALKHFRVKFNEALRESWKTKVNWLAHNVSKDNRQ

Variants of: B1
Settings: with p85a_human PIK3R1, P27986
p85a_human PIK3R1, P27986, sequence (P27986 whole entry): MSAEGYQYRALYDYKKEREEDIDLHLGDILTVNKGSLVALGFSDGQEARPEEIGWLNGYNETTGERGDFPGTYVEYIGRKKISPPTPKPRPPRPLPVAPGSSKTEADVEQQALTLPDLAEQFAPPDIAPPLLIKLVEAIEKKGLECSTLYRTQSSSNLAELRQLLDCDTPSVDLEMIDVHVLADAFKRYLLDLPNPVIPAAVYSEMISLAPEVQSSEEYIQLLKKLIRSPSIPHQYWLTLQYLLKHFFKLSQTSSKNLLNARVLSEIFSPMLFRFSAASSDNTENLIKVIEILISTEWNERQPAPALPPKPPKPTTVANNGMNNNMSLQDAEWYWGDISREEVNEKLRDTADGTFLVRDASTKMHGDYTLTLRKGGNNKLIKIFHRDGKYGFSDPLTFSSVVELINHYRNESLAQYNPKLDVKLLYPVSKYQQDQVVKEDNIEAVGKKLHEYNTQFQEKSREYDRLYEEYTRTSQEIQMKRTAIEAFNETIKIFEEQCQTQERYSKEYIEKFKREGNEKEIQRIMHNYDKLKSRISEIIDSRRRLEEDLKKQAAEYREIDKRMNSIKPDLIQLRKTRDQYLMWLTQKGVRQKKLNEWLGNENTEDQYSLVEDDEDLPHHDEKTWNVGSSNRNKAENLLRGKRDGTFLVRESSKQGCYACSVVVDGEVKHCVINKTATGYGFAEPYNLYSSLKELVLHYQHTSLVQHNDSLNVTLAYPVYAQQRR

Y524S was tested. Which “effect of a mutation on the interaction” value did it give?
Its value is “with no effect”.

Source: IntAct's records for PubMed 31031754
